Laboratory results taken from paper PMC2599808.

Legend:
[1] = target: recombinant wild-type cardiac troponin C (chicken) (UniProt P09860); experiment: native gel or EMSA
[2] = target: recombinant wild-type cardiac troponin T (rat) (UniProt P50753); experiment: native gel or EMSA

Row | Substance | stoichiometry N [1] | stoichiometry N [2]
1 | cTnI(151C), cardiac troponin I single-cysteine mutant C81I/C98S/S151C labeled with AEDANS (from UniProt P48787 1-211) (natural protein) | 1 | 1
2 | cTnI(160C), cardiac troponin I single-cysteine mutant C81I/C98S/L160C labeled with AEDANS (from UniProt P48787 1-211) (natural protein) | 1 | 1

Next, values leading:

Row | stoichiometry N [1] | stoichiometry N [2] | Substance
3 | 1 | 1 | cTnI(131C), cardiac troponin I single-cysteine mutant C81I/C98S/Q131C labeled with AEDANS (from UniProt P48787 1-211) (natural protein)
4 | 1 | 1 | cTnI(167C), cardiac troponin I single-cysteine mutant C81I/C98S/S167C labeled with AEDANS (from UniProt P48787 1-211) (natural protein)
5 | 1 | 1 | cTnI(188C), cardiac troponin I single-cysteine mutant C81I/C98S/E188C labeled with AEDANS (from UniProt P48787 1-211) (natural protein)
6 | 1 | 1 | cTnI(210C), cardiac troponin I single-cysteine mutant C81I/C98S/E210C labeled with AEDANS (from UniProt P48787 1-211) (natural protein)
